B1: 8oxo-rG:rC (dsRNA)
RNA 1: GGGGCAAAUGCAAACAUGUCCAAAAACAAGGACCAACGCA
RNA 2: UGCGUUGGUCCUUGUUUUUGGACAUGUUUGCAUUUGCCCC
modifications: single 8-oxoguanine at the end of GGGG

Target: OGG1 (ENZ-253, ProSpec) (UniProt O15527 1-345)
Assay: EMSA
Conditions: protein: commercial, label: Cy5

Chain of OGG1 (ENZ-253, ProSpec) (O15527 whole entry): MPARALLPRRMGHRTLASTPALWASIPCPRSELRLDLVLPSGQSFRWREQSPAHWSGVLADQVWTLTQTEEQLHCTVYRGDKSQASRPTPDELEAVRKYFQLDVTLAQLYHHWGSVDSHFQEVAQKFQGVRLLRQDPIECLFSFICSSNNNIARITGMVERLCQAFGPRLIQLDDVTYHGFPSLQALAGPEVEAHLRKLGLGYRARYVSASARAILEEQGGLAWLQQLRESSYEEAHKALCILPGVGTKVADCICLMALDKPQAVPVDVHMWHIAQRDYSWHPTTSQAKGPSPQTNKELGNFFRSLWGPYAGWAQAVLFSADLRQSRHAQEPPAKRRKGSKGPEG

Binder	binding result (predicted secondary structure)	binding result (annealed duplex)
GGGGCAAAUGCAAACAUGUCCAAAAACAAGGACCAACGCA (structured_RNA, single 8-oxoguanine at the end of GGGG) [8oxo-rG, undenatured]	binds	
B1		binds

From PMC11515973, “8-Oxoguanine DNA Glycosylase1 conceals oxidized guanine in nucleoprotein-associated RNA of respiratory syncytial virus”
